# In paper PMC4963855:
# Target: mouse recombinant TNF (mouse) (UniProt P06804)
# UniProt P06804, sequence (P06804 80-235): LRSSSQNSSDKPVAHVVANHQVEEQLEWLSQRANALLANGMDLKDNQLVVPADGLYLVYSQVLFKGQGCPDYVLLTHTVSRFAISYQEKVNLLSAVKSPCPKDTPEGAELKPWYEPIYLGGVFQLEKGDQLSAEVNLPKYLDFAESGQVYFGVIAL
substance,measurement,value
"BmooMP-alpha-I, zinc metalloprotease of class P-I from Bothrops moojeni snake venom (enzyme)",TNF level detected by sandwich ELISA after preincubation of recombinant TNF (1000 pg/mL) with 12 ug/mL BmooMP-alpha-I for 45 min at 37 °C (degradation of TNF),53.4 % decrease
same,TNF level detected by sandwich ELISA after preincubation of recombinant TNF with BmooMP-alpha-I inactivated with 10 mM Na2EDTA (BmooMP-alpha-I(i)),80%
